Target: TDG (recombinant murine TDG) (Mus musculus, UniProt P56581 1-421)
Test: competition; competes TDG-Sra1 and TDG-Neat1 complexes; higher affinity than lncRNA; BER buffer: 50 mM HEPES pH 8.0, 70 mM KCl, 0.5 mg/mL BSA, 7 mM MgCl2, 1 mM DTT, RNase inhibitor; RT, 15 min (buffer stated for lncRNA EMSA; 60 bp EMSA: 2 µM TDG, 2 µM substrate, RT 15 min)
Details: protein: recombinant; blunt, one G·U mismatch

TDG (recombinant murine TDG), sequence (P56581 whole entry): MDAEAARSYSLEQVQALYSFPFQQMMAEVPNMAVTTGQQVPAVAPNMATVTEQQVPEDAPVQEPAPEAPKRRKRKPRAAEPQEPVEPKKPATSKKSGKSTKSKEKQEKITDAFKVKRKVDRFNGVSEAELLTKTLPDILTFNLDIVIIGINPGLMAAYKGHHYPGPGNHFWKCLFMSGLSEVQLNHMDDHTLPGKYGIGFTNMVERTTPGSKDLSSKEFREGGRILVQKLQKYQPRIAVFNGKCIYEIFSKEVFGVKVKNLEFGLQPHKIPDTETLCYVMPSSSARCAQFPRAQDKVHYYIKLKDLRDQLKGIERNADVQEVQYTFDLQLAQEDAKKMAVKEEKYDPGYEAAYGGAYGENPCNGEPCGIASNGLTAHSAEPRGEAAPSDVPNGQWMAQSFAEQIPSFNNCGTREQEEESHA

B1: Subs60 G·U (unlabeled competitor) (dsDNA)
DNA 1: TAGACATTGCCCTCGAGGTACCATGGATCCGATGTCGACCTCAAACCTAGACGAATTCCG
DNA 2: CGGAATTCGTCTAGGTTTGAGGTUGACATCGGATCCATGGTACCTCGAGGGCAATGTCTA
modifications: dU at position 24 of strand 2
B1: binds.
